Experimental data: US20250313641A1 (Amgen, published 2025)
Changes are numbered by the printed parent chain. Names and notes keep the numbering of the source.

T1: human IL-2 receptor (IL-2R) on human PBMC subsets (human, UniProt P14784 27-551; P31785 23-369)
T1 sequence 1: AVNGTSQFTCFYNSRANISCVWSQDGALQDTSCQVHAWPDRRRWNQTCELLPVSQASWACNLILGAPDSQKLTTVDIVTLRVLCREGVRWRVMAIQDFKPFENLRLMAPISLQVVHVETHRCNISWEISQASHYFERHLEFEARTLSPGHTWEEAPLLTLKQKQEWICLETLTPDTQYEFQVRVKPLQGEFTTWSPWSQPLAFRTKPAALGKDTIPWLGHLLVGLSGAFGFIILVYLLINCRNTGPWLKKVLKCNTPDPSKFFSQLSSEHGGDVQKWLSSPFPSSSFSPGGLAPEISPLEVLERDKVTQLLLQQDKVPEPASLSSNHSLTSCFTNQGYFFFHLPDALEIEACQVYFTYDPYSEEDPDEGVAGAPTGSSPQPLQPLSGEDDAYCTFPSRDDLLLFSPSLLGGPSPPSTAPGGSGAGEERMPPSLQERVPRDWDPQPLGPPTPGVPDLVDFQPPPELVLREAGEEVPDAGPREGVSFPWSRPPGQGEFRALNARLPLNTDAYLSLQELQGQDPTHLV
T1 sequence 2: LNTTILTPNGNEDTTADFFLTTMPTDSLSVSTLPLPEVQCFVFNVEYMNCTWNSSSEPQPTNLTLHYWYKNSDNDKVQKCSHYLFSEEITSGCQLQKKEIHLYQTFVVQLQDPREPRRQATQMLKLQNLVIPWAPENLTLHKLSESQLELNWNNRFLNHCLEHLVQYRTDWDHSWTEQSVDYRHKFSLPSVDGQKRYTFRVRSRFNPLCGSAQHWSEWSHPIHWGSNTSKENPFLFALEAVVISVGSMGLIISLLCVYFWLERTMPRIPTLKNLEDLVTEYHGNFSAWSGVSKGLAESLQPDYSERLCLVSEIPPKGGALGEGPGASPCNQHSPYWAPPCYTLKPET

T2: cynomolgus monkey IL-2 receptor (IL-2R) on cyno PBMC subsets (cynomolgus monkey, UniProt Q38J85 27-551; A0A2K5VGJ6 23-369)
T2 sequence (looked up) 1: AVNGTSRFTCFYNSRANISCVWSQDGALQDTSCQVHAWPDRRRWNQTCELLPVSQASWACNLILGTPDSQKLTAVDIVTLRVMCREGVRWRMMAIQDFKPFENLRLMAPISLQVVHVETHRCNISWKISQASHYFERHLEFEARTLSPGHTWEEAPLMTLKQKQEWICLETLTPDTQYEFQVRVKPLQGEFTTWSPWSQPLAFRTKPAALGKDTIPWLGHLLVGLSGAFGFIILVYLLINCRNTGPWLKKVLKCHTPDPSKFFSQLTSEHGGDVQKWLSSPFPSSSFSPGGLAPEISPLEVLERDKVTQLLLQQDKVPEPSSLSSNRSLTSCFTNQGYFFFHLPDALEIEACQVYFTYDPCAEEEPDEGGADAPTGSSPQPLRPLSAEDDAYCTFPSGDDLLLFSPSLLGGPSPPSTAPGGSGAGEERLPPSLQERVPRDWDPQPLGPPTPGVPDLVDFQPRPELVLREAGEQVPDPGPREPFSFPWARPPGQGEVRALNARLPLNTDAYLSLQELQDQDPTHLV
T2 sequence (looked up) 2: T1 sequence 2 with T14A, A16T, T22S, H141R, T228S, A326P

B1: HCAb2 (bispecific antibody, human IgG4 S228P, F234A L235A)
heavy 1: QVQLQESSPGLVKPSETLSLTCTVSGGSISSSNWWSWVRQPPGKGLEWIGEISHSGSTNYNPSLKSRVTISVDKSKNQFSLRLSSVTAADTAVYFCGRGSWELTDAFDIRGQGTLVTVSSESKYGPPCPPCPAPEAAGGPSVFLFPPKPKDTLMISRTPEVTCVVVDVSQEDPEVQFNWYVDGVEVHNAKTKPREEQFNSTYRVVSVLTVLHQDWLNGKEYKCKVSNKGLPSSIEKTISKAKGQPREPQVYTLPPSQEEMTKNQVSLSCAVKGFYPSDIAVEWESNGQPENNYKTTPPVLDSDGSFFLVSRLTVDKSRWQEGNVFSCSVMHEALHNHYTQKSLSLSLGK
heavy 2: QVQLVESGGGLVKPGGSLRLSCAASGFTFSDYYMSWIRQAPGKGLEWVSYISSSGSTIYYADSVKGRFTISRDNAKNSLYLQMNSLRAEDTAVYYCARGDAVSITGDYRGQGTLVTVSSESKYGPPCPPCPAPEAAGGPSVFLFPPKPKDTLMISRTPEVTCVVVDVSQEDPEVQFNWYVDGVEVHNAKTKPREEQFNSTYRVVSVLTVLHQDWLNGKEYKCKVSNKGLPSSIEKTISKAKGQPREPQVYTLPPSQEEMTKNQVSLWCLVKGFYPSDIAVEWESNGQPENNYKTTPPVLDSDGSFFLYSRLTVDKSRWQEGNVFSCSVMHEALHNHYTQKSLSLSLGK
B2: HCAb1 (bispecific antibody, IgG1)
heavy 1: not shown
heavy 2: QVQLVESGGGLVKPGGSLRLSCAASGFTFSDYYMSWIRQAPGKGLEWVSYISSSGSTIYYADSVKGRFTISRDNAKNSLYLQMNSLRAEDTAVYYCARGDAVSITGDYRGQGTLVTVSSGGGGDKTHTCPPCPAPELLGGPSVFLFPPKPKDTLMISRTPEVTCVVVDVSHEDPEVKFNWYVDGVEVHNAKTKPCEEQYGSTYRCVSVLTVLHQDWLNGKEYKCKVSNKALPAPIEKTISKAKGQPREPQVYTLPPSRKEMTKNQVSLTCLVKGFYPSDIAVEWESNGQPENNYKTTPPVLKSDGSFFLYSKLTVDKSRWQQGNVFSCSVMHEALHNHYTQKSLSLSPGK
notes: Heavy-chain antibody without light chains, made of two different heavy chains; The IgG1-derived Fc carries SEFL2.2 mutations (R292C, N297G, V302C) and charge-pair substitutions; also called anti-IL2RBG heavy-chain antibody

What was measured:
[1] = biological target: T1, human IL-2 receptor (IL-2R) on human …; assay: cell-based or functional assay
[2] = biological target: T1, human IL-2 receptor (IL-2R) on human …; assay: cell-based or functional assay; remark: listed apart in the source
[3] = biological target: T2, cynomolgus monkey IL-2 receptor (IL-2R) …; assay: cell-based or functional assay
[4] = biological target: T1, human IL-2 receptor (IL-2R) on human …; assay: cell-based or functional assay; remark: listed apart in the source
[5] = biological target: T1, human IL-2 receptor (IL-2R) on human …; assay: cell-based or functional assay; remark: listed apart in the source
[6] = biological target: T2, cynomolgus monkey IL-2 receptor (IL-2R) …; assay: cell-based or functional assay; remark: listed apart in the source
[7] = biological target: T1, human IL-2 receptor (IL-2R) on human …; assay: Flow cytometry on human PBMCs gated on CD8+ T-cells; detection with goat F(ab')2 anti-human IgG-PE; gMFI as fold over background
Procedure: (§1) All washes and dilutions of cells, antibodies, and reagents were performed using flow buffer (1×PBS, 1% BSA, 0.1% NaN3, pH 7.4). All incubations were performed at 4° C. or on ice. Freshly thawed PBMCs were seeded at 100,000 cells/well in a 96-well round bottom plate (Corning) and incubated for 30 minutes with serially diluted test articles in a total volume of 50 μL. Cells were washed twice with 200 μL flow buffer and subsequently stained with a 0.625 μg/mL Goat F (ab′) 2 Anti-Human IgG-PE (Southern Biotech) secondary detection antibody. Fluorescently conjugated anti-CD3 (OKT3), CD4 (OKT4), CD8 (RPA-T8), CD25 (M-A251), CD127 (A019D5), and CD56 (HCD56) antibodies (BioLegend) were also included at 1:20 dilution to enable the characterization of T-cell and NK cell populations. Following a 30-minute incubation, and 2 more washes, the cells were resuspended in a final volume of 120 μL of flow buffer containing 7-AAD viability dye. The cells were analyzed on a BD FACSCelesta™, maximum events were collected, and geometric mean fluorescence intensity was plotted as a fold-over-background (cells incubated with secondary detection antibody and cell lineage marker stains only).
(§2) Cell binding was determined by flow cytometry and reported as geometric mean fluorescent intensity (gMFI) over the gMFI of cells stained only with secondary detection antibody.

[8] = biological target: T1, human IL-2 receptor (IL-2R) on human …; assay: Flow cytometry on human PBMCs gated on CD4+CD25+CD127lo T-regs; detection with goat F(ab')2 anti-human IgG-PE; gMFI as fold over background
Procedure: as §1, §2

[9] = biological target: T1, human IL-2 receptor (IL-2R) on human …; assay: Flow cytometry on human PBMCs gated on CD3-CD56+ NK cells; detection with goat F(ab')2 anti-human IgG-PE; gMFI as fold over background
Procedure: as §1, §2

[10] = biological target: T2, cynomolgus monkey IL-2 receptor (IL-2R) …; assay: Flow cytometry on cynomolgus PBMCs gated on CD4+CD25+CD127lo T-regs; detection with anti-human IgG-PE; gMFI as fold over background
[11] = biological target: T1, human IL-2 receptor (IL-2R) on human …; assay: Flow cytometry on human PBMCs gated on CD4+ T-cells; detection with goat F(ab')2 anti-human IgG-PE; gMFI as fold over background
Procedure: as §1, §2

[12] = biological target: T2, cynomolgus monkey IL-2 receptor (IL-2R) …; assay: Flow cytometry on cynomolgus PBMCs gated on CD3-CD159a+ NK cells; detection with anti-human IgG-PE; gMFI as fold over background

| Binder | pSTAT5 (Human) EC50 [nM], CD4^+ T-cell [1] | pSTAT5 (Human) EC50 [nM], CD4^+CD25^+ T-regs [1] | pSTAT5 (Human) EC50 [nM], CD8^+ T-cell [1] | Ki67 (Human) EC50 [nM], CD4^+ T-cell [2] | Ki67 (Human) EC50 [nM], CD4^+CD25^+ T-regs [2] | Ki67 (Human) EC50 [nM], CD8^+ T-cell [2] | pSTAT5 (Cyno) EC50 [nM], CD4^+ T-cell [3] | pSTAT5 (Cyno) EC50 [nM], CD4^+CD25^+ T-regs [3] | pSTAT5 (Cyno) EC50 [nM], CD8^+ T-cell [3] | other results |
| --- | --- | --- | --- | --- | --- | --- | --- | --- | --- | --- |
| B1 | 44.6 nM | 13.2 nM | 24 nM | 23.9 nM | 14.6 nM | 36.5 nM | 9.36 nM | 4.29 nM | 3.13 nM |  |
| B2 | 34.9 nM | 10.7 nM | 21.5 nM | 23.7 nM | 9.26 nM | 25.1 nM | 7.72 nM | 5.37 nM | 3.31 nM | pSTAT5 (Human) EC50 [nM], CD4^+ T cells [4]: 22.9 nM; pSTAT5 (Human) EC50 [nM], CD8^+ T cells [4]: 15.5 nM; pSTAT5 (Human) EC50 [nM], NK cells [4]: 8.77 nM; pSTAT5 (Human) EC50 [nM], T-regs [4]: 13.1 nM; Ki67 (Human) EC50 [nM], CD4^+ T cells [5]: 13.2 nM; Ki67 (Human) EC50 [nM], CD8^+ T cells [5]: 5.17 nM; Ki67 (Human) EC50 [nM], NK cells [5]: 7.34 nM; Ki67 (Human) EC50 [nM], T-regs [5]: 0.81 nM; Ki67 (Cyno) EC50 [nM], CD4^+ T cells [6]: 14.7 nM; Ki67 (Cyno) EC50 [nM], CD8^+ T cells [6]: 14.8 nM; Ki67 (Cyno) EC50 [nM], NK cells [6]: 5.97 nM; Ki67 (Cyno) EC50 [nM], T-regs [6]: 1.25 nM; EC50 (read off the curve) [7]: ~20 nM; EC50 (read off the curve) [8]: ~10 nM; EC50 (read off the curve) [9]: ~2 nM; EC50 (read off the curve) [10]: ~8 nM; EC50 (read off the curve) [11]: ~30 nM; EC50 (read off the curve) [12]: ~2 nM |
